Here are results for one substance from patent US10538556.

In series [1] the test system is TBP6.7 deltaC truncated after residue 90 (in TBP6.7 Y31H/Q36R) (Homo sapiens). Nature of the series: ITC. The following applies: 20 C.
Series [2] addresses TBP6.7 T50A T50A (in TBP6.7 Y31H/Q36R) (Homo sapiens) (UniProt P09012). In words: ITC. The following applies: 20 C; error printed as XX.
In series [3] the test system is TBP6.7 (U1A-derived TAR binding protein, crystallization variant) (Homo sapiens). In words: ITC. (Isothermal titration calorimetry measures the heat released or taken up as one component is titrated into another.)
Series [4] concerns the target TBP6.7 Q48T Q48T (in TBP6.7 Y31H/Q36R) (Homo sapiens) (UniProt P09012). In words: ITC. The settings on record: 20 C.
For series [5], the target named is TBP6.7 Q54A Q54A (in TBP6.7 Y31H/Q36R) (Homo sapiens) (UniProt P09012). In words: ITC. The following applies: 20 C.
Chain of TBP6.7 Q54A Q54A (in TBP6.7 Y31H/Q36R) (Homo sapiens) (P09012 1-98 Y31H/Q36R/Q54A): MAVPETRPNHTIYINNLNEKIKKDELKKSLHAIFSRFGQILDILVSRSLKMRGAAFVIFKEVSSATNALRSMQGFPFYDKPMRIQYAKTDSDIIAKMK
Series [6] deals with TBP6.7 P46A P46A (in TBP6.7 Y31H/Q36R) (Homo sapiens) (UniProt P09012). In words: ITC. The settings on record: 20 C.
Chain of TBP6.7 P46A P46A (in TBP6.7 Y31H/Q36R) (Homo sapiens) (P09012 whole entry, stated change not applied): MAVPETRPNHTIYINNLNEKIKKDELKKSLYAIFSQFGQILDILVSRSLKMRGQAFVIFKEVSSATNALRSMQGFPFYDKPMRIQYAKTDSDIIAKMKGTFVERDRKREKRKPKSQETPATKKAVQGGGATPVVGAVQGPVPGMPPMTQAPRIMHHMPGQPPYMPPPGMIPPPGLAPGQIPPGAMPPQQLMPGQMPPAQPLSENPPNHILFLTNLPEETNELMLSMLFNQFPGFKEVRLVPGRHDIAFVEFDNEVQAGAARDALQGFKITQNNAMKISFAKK
The target in series [7] is TBP6.7 R47A R47A (in TBP6.7 Y31H/Q36R) (Homo sapiens) (UniProt P09012). In words: ITC. The following applies: 20 C; estimate, low c-value.
Chain of TBP6.7 R47A R47A (in TBP6.7 Y31H/Q36R) (Homo sapiens) (P09012 1-98 Y31H/Q36R/R47A): as the sequence (P09012 1-98 Y31H/Q36R/Q54A) above, with R47A, A54Q counted along it
The target of series [8] is TBP6.7 R52A R52A (in TBP6.7 Y31H/Q36R) (Homo sapiens) (UniProt P09012). In words: ITC. The following applies: 20 C.
Chain of TBP6.7 R52A R52A (in TBP6.7 Y31H/Q36R) (Homo sapiens) (P09012 1-98 Y31H/Q36R/R52A): as the sequence (P09012 1-98 Y31H/Q36R/Q54A) above, with R52A, A54Q counted along it
Series [9] addresses TBP6.7 P51A P51A (in TBP6.7 Y31H/Q36R) (Homo sapiens) (UniProt P09012). In words: ITC. The following applies: 20 C.
In series [10] the target is TBP6.7 Q48A Q48A (in TBP6.7 Y31H/Q36R) (Homo sapiens) (UniProt P09012). Nature of the series: ITC. The settings on record: 20 C.
Chain of TBP6.7 Q48A Q48A (in TBP6.7 Y31H/Q36R) (Homo sapiens) (P09012 other isoform, or with tags, fused parts or gaps Q48A Q48A Y31H Q36R): as the sequence (P09012 1-98 Y31H/Q36R/Q54A) above, with H31Y, R36Q, A54Q, Y78H counted along it
Series [11] addresses TBP6.7 R49A R49A (in TBP6.7 Y31H/Q36R) (Homo sapiens) (UniProt P09012). In words: ITC. The settings on record: 20 C.
For series [12], the target named is TBP6.7 R47K R47K (in TBP6.7 Y31H/Q36R) (Homo sapiens) (UniProt P09012). In words: ITC. The following applies: 20 C.
Chain of TBP6.7 R47K R47K (in TBP6.7 Y31H/Q36R) (Homo sapiens) (P09012 1-98 Y31H/Q36R/R47K): as the sequence (P09012 1-98 Y31H/Q36R/Q54A) above, with R47K, A54Q counted along it
Series [13] has as its system Tat peptide (basic domain) (Human immunodeficiency virus 1). The settings on record: method of this Kd not stated.
In series [14] the test system is stapled (cyclic) beta2-beta3 loop peptide L44C, F56C (synthetic). Nature of the series: flow. The following applies: 25 C, E. coli surface display, apparent Kd.

Chain of TBP6.7 Q48T Q48T (in TBP6.7 Y31H/Q36R) (Homo sapiens) (P09012 whole entry, stated change not applied): as the sequence (P09012 whole entry, stated change not applied) above
Chain of TBP6.7 P51A P51A (in TBP6.7 Y31H/Q36R) (Homo sapiens) (P09012 whole entry, stated change not applied): as above
Chain of TBP6.7 T50A T50A (in TBP6.7 Y31H/Q36R) (Homo sapiens) (P09012 whole entry, stated change not applied): as above
Chain of TBP6.7 R49A R49A (in TBP6.7 Y31H/Q36R) (Homo sapiens) (P09012 whole entry, stated change not applied): as above

With HIV-1 TAR RNA, the Kd in series [1] was 0.012 µM; in series [2], 0.0114 µM; in [3] (20 C, n=0.99) it was 0.0025 µM; in [3] (37 C, 0.05 M NaCl, 0.05 M KCl, 2 mM MgCl2, 2 mM beta-mercaptoethanol, pH 7.5, estimate of about 0.7 nM at 20 C in same example) it was 0.0185 µM; in series [4], 0.0036 µM; in series [5], 0.0072 µM. Further, the Kd was 0.0117 µM in series [6]; 1.52 µM in series [7]; 0.29 µM in series [8]; 0.0108 µM in series [9]; 0.0055 µM in series [10]; 0.71 µM in series [11]. In addition, the Kd in series [12] was found to be 0.156 µM; in series [13], 0.26 µM; in [14], 0.08 µM.
